Literature values in patent publication US20070212358A1, “Compositions and Methods for Effecting Controlled Posterior Vitreous Detachment” (priority 2006, published 2007).

Tested on: vitreoretinal interface
Conditions: rabbit eyes

B1: plasmin (protein, UniProt P00747 20-580; P00747 581-810, looked up)
Plasmin heavy chain A: EPLDDYVNTQGASLFSVTKKQLGAGSIEECAAKCEEDEEFTCRAFQYHSKEQQCVIMAENRKSSIIIRMRDVVLFEKKVYLSECKTGNGKNYRGTMSKTKNGITCQKWSSTSPHRPRFSPATHPSEGLEENYCRNPDNDPQGPWCYTTDPEKRYDYCDILECEEECMHCSGENYDGKISKTMSGLECQAWDSQSPHAHGYIPSKFPNKNLKKNYCRNPDRELRPWCFTTDPNKRWELCDIPRCTTPPPSSGPTYQCLKGTGENYRGNVAVTVSGHTCQHWSAQTPHTHNRTPENFPCKNLDENYCRNPDGKRAPWCHTTNSQVRWEYCKIPSCDSSPVSTEQLAPTAPPELTPVVQDCYHGDGQSYRGTSSTTTTGKKCQSWSSMTPHRHQKTPENYPNAGLTMNYCRNPDADKGPWCFTTDPSVRWEYCNLKKCSGTEASVVAPPPVVLLPDVETPSEEDCMFGNGKGYRGKRATTVTGTPCQDWAAQEPHRHSIFTPETNPRAGLEKNYCRNPDGDVGGPWCYTTNPRKLYDYCDVPQCAAPSFDCGKPQVEPKKCPGR
Plasmin light chain B: VVGGCVAHPHSWPWQVSLRTRFGMHFCGGTLISPEWVLTAAHCLEKSPRPSSYKVILGAHQEVNLEPHVQEIEVSRLFLEPTRKDIALLKLSSPAVITDKVIPACLPSPNYVVADRTECFITGWGETQGTFGAGLLKEAQLPVIENKVCNRYEFLNGRVQSTELCAGHLAGGTDSCQGDSGGPLVCFEKDKYILQGVTSWGLGCARPNKPGVYVRVSRFVTWIEGVMRNN
modifications: Plasmin
posterior vitreous detachment (PVD) in eyes treated with plasmin (plasmin treatment): some areas of PVD | detachment of the vitreous after plasmin treatment and vitrectomy (plasmin treatment with subsequent vitrectomy): substantially detached
